Assay results: patent publication US20140056918A1 (Novo Nordisk, published 2014)

B1: 4F3B (antibody, V domains shown)
VH: QVQLQQSGAELAKPGASVKMSCKASGFTFTSYWMHWVKQRPGQGLEWIGYINPSTDYTEYNQKFKDKATLTADKSSSTAYMQLSSLTSEDSAVYYCARRSPFAMDYWGQGTSVTVSS
VL: DIVMTQSPSSLTVTAGEKVTMSCKSSQSLLNSGNQKNYLTWYQQKPGQPPKVLIYWASTRESGVPDRFTGSGSGTDFTLTISSVQAEDLAVYYCQNDYSYPLTFGTGTKLELKR
notes: Mouse anti-human OSCAR mAb (its isotype control is mIgG1); The heavy chain entry covers only VH-CH1 and the start of the hinge; It was fluorescein-labelled in the peptide array and Alexa Fluor 647-labelled in the flow binning; also called mAb 4F3B
B2: 13F5A5 (antibody, V domains shown)
VH: EVQLVQSGAEVKKPGESLKISCKGSGYSFTSYWIVWVRQMPGKGLEWMGSIYPGDSDARYSPSFQGQVTISADKSISTAYLQWSSLKASDTAMYYCARQKITMVRGVIITPLDGMDVWGQGTTVTVSS
VL: not shown
notes: Fully human anti-OSCAR mAb from HuMab mice; also called 13F5A5 (Hu)
B3: 3F7A9 (antibody, V domains shown)
VH: EIQLQQSGPELVKPGASVKVSCKASGYVFTSYNMYWVKQSHGKSLEWIGYIDPYNGGTRYNQKFKGKATLTVDKSSSTAYMHLNSLTSEDSAVYYCARLDYYGNFYWGQGTTLTVSS
VL: DIKMTQSPSSMYASLGERVTITCKASQDINSFLSWLQQKPGKSPKTLIYRANRLVDGVPSRFSGSGSGQDYSLTISSLEYEDMGIYYCLQYDDFPYTFGGGTKLEIKR
notes: Mouse anti-human OSCAR mAb (its isotype control is mIgG1); The heavy chain entry covers only VH-CH1 and the start of the hinge; also called 3F7A9-1
B4: Human OSCAR-ECD (recombinant extracellular domain of human OSCAR) (receptor)
chain: DITPSVPPASYHPKPWLGAQPATVVTPGVNVTLRCRAPQPAWRFGLFKPGEIAPLLFRDVSSELAEFFLEEVTPAQGGSYRCCYRRPDWGPGVWSQPSDVLELLVTEELPRPSLVALPGPVVGPGANVSLRCAGRLRNMSFVLYREGVAAPLQYRHSAQPWADFTLLGARAPGTYSCYYHTPSAPYVLSQRSEVLVISWEDSGSSDYTR
notes: also called OSACAR-ECD

Tests used:
[1] = biological target: T1, Human OSCAR (osteoclast-associated receptor), full length, on cells (human); assay: cell-based or functional assay
T1 chain: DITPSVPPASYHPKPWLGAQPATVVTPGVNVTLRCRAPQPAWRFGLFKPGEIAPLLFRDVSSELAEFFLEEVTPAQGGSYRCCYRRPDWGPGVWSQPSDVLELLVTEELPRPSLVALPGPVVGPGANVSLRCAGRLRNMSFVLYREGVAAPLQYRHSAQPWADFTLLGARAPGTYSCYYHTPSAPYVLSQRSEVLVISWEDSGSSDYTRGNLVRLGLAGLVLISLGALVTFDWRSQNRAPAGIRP

[2] = biological target: T1, Human OSCAR (osteoclast-associated …); assay: flow cytometry on primary human monocytes, donor #1
Protocol: (§1) Cell number and viability were determined using a Cedex cell counter. The cells were diluted in washing buffer (1×PBS (—Ca²⁺/—Mg²⁺)+5% FBS+0.1% Na-azide) to […]. In the case of monocytes, the cells were further blocked by adding 10 μl of a hFcR blocker (Miltenyi, #130-059-901) and incubated for 10 minutes at 4° C. 50 μl of cells (50.000 cells/well) were seeded into 96 well round-bottomed microtiter plates. Hybridoma supernatants or purified antibodies (in serial dilutions) were added to the cells at 50 μl/well. The isotype-matched purified irrelevant human mAb or mouse mAb served as negative controls (mouse IgG1, BD, #553452; mouse IgG2a, BD, #557353; mouse IgG2b, BD, #557352). […] Cells were washed in PBS, re-suspended in fixation buffer (1×PBS (—Ca²⁺/—Mg²⁺), pH7.2+1% formalin (B&B, #LAB96751.0500) and analysed by FACS flow cytometer. EC₅₀ values were calculated using a GraphPad Prism 5 software.

[3] = biological target: T1, Human OSCAR (osteoclast-associated …); assay: flow cytometry on primary human monocytes, donor #2
Protocol: as §1

[4] = biological target: B4; assay: SPR competition, 50 nM OSCAR-ECD premixed with mAb, over immobilised collagen I
Protocol: (§2) The experiment was performed using a Biacore T 100 instrument (GE Healthcare). Human collagen 1 (Sigma, # C5483) and human collagen 2 (Millipore #CC052) were diluted with 10 mM NaOAc, pH 4.5 and immobilized on a Biacore CM3 sensor chip (GE Healthcare) using amine coupling chemistry (GE Healthcare). Immobilization was performed according to the standard procedure, but at 5° C. in order to prevent aggregation collagens, with immobilized levels of ca 250 RU on flow cells (FC) 2 and 4. A blank immobilization was performed on FC 1 & 3, which were used as reference cells. HBS-EP buffer (10 mM HEPES, 150 mM NaCl, 3 mM EDTA, 0.05% Polysorbat P20, pH7.4) was used as running buffer for the immobilization. Buffer containing HBS-EP/+0.1% BSA was used for the competition assay. The competition experiment was performed at 5° C. at a flow rate of 50 μl/min. […] OSCAR was mixed with various concentrations of anti-OSCAR antibodies ranging from 0-10 μg/ml prior to injection. Binding curves were measured for 360 s followed by 240 s of dissociation. The chip surface was regenerated for 2×20 s with 10 mM glycine, pH 2.0 between assays.
(§3) Human collagen I and II were immobilized to the surface of a Biacore sensor chip by amine coupling. […] It was hypothesized that an antibody inhibiting binding of OSCAR to collagen would lead to a concentration-dependent loss of signal, whereas a non-inhibiting antibody would enhance the signal due to the increased mass of the OSCAR-antibody complex.

[5] = biological target: B4; assay: SPR (Biacore T100), mAb coupled or captured on chip, OSCAR-ECD injected, 1:1 fit
Protocol: The kinetic parameters (kₐ, kd and KD) for the interaction were calculated using a 1:1 interaction Langmuir fitting model.

[6] = biological target: B4; assay: SPR competition, 50 nM OSCAR-ECD premixed with mAb, over immobilised collagen II; design: unit not given here
Protocol: as §2, §3

[7] = biological target: B4; assay: SPR competition, 50 nM OSCAR-ECD premixed with mAb, over ColI immobilised at ca 150 RU
Protocol: (§4) The experiment was performed using a Biacore T 100 instrument (GE Healthcare). Human ColI (Sigma, # C5483) was diluted with 10 mM NaOAc, pH 4.5 to 10 μg/ml and immobilized on a Biacore CM3 sensor chip (GE Healthcare) using amine coupling chemistry (GE Healthcare). Immobilization was performed according to the standard procedure, but at 4° C. in order to prevent aggregation of ColI, with immobilized levels of ca 150 RU on flow cell (FC) 2 and ca 300 RU on FC 4. A blank immobilization was performed on FC 1 & 3, which were used as reference cells. HBS-EP buffer (10 mM HEPES, 150 mM NaCl, 3 mM EDTA, 0.005% Polysorbat P20, pH7.4) was used as running buffer for the immobilization. Buffer containing HBS-EP/+0.1% BSA was used for the competition assay.
(§5) The competition experiment was performed at 4° C. at a flow rate of 50 μl/min. […] OSCAR was mixed with various concentrations of anti-OSCAR antibodies ranging from 0-5 μg/ml prior to injection. Binding curves were measured for 240 s followed by 200 s of dissociation. The chip surface was regenerated for 2×20 s with 10 mM glycine, pH 2.0 between assays. All assays were performed in duplicates.
(§6) Human ColI was immobilized to the surface of a Biacore sensor chip by amine coupling.

[8] = biological target: B4; assay: SPR competition, 50 nM OSCAR-ECD premixed with mAb, over ColI immobilised at ca 300 RU
Protocol: as §4, §5, §6

[9] = biological target: T2, Human OSCAR-S1a (naturally occurring soluble isoform) (human, UniProt Q8IYS5 19-282); assay: SPR competition, 50 nM OSCAR-S1a premixed with mAb, over ColI immobilised at ca 150 RU
T2 construct: Recombinant soluble isoform used as SPR analyte; also called OSCAR 1Sa
T2 sequence: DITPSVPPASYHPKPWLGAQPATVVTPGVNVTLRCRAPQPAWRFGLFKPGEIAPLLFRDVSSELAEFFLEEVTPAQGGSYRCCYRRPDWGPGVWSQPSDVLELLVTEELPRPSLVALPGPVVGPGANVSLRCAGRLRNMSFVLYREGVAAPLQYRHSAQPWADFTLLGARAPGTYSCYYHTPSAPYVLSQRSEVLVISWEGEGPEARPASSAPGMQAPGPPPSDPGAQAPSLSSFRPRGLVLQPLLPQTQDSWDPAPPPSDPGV
Protocol: as §4, §5, §6

[10] = biological target: T2, Human OSCAR-S1a (naturally occurring …); assay: SPR competition, 50 nM OSCAR-S1a premixed with mAb, over ColI immobilised at ca 300 RU
Protocol: as §4, §5, §6

[11] = biological target: T3, Human collagen I (Sigma, #C5483) (human, UniProt P02452 162-1218; P08123 80-1119); assay: SPR
T3 construct: Bought collagen preparation, immobilised by amine coupling or coated on plates; also called ColI; colI
T3 sequence (P02452 162-1218, chain 1 of 2): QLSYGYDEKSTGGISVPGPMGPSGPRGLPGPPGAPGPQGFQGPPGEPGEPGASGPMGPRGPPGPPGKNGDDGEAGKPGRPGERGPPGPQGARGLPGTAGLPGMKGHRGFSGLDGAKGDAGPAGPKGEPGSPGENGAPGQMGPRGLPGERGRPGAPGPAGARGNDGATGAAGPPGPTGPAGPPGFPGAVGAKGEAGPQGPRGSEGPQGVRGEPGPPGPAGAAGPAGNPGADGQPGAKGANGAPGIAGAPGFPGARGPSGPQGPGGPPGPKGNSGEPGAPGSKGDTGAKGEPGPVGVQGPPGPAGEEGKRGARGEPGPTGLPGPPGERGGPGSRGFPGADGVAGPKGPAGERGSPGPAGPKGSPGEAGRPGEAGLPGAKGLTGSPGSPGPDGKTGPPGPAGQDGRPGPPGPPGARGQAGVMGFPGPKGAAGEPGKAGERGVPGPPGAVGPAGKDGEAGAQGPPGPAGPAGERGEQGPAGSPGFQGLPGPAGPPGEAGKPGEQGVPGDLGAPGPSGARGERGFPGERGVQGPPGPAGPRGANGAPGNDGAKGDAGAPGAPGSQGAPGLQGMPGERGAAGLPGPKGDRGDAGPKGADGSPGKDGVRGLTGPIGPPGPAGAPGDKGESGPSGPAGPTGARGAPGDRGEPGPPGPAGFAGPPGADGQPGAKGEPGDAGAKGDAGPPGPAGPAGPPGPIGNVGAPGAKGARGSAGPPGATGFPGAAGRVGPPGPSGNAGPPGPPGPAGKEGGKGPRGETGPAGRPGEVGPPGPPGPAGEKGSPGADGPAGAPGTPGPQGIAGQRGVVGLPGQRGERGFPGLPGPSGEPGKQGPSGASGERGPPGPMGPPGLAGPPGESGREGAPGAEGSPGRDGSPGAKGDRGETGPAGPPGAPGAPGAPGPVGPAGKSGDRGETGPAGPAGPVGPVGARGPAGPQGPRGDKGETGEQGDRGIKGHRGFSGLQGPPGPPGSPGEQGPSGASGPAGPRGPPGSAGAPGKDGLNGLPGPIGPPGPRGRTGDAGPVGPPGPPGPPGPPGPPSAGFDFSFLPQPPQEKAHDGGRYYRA
T3 sequence (P08123 80-1119, chain 2 of 2): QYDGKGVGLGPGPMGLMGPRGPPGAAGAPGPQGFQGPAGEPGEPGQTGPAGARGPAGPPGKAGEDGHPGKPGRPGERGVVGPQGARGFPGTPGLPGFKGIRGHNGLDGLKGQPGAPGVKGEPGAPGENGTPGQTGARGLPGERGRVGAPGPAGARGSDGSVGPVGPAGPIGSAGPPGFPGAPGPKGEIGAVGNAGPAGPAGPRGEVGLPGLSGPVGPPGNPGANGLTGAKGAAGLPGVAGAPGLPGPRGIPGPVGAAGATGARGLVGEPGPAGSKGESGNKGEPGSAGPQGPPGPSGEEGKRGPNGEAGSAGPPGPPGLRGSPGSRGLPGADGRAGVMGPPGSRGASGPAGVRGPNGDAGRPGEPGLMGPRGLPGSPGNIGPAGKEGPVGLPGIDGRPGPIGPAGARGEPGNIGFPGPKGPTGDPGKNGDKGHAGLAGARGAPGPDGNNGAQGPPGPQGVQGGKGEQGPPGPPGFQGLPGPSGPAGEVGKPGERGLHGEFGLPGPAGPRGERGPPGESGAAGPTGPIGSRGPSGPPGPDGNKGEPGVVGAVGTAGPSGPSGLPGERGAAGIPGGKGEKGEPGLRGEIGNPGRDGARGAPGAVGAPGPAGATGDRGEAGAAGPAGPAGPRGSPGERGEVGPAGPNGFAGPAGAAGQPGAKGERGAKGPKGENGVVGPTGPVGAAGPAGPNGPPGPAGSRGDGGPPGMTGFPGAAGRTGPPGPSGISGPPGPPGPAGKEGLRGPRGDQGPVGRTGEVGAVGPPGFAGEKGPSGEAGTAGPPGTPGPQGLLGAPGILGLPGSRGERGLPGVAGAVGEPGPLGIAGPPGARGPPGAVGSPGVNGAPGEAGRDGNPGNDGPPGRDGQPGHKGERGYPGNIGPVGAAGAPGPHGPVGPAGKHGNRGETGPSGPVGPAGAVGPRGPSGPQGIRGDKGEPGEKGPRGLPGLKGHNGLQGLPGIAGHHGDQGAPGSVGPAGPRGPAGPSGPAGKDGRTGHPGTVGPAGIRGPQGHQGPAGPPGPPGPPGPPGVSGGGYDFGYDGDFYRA

Binder: B1
- IC50 (IL-8), ColI-induced IL-8 release from moDC, Donor 1 [1]: 0.19 nM
- IC50 (IL-8), ColI-induced IL-8 release from moDC, Donor 3 [1]: 0.4 nM
- IC50 (IL-8), ColI-induced IL-8 release from moDC, Donor 4 [1]: 0.12 nM
- IC50 (IL-8), ColI-induced IL-8 release from moDC, Donor 5 [1]: 0.43 nM
- IC50 (IL-8), ColI-induced IL-8 release from moDC, Donor 6 [1]: 0.24 nM
- EC50 [2]: 0.66 nM
- EC50 [3]: 0.32 nM
- binding of OSCAR-ECD to collagen I with 10 µg/mL mAb [4]: 0.7
- Kd [5]: 1.7 nM
- binding of OSCAR-ECD to collagen II with 10 µg/mL mAb [6]: 6.7
- Binding [RU] of OSCAR to ColI with 5 µg mAb [7]: 0.9 RU
- Binding [RU] of OSCAR to ColI with 5 µg mAb [8]: 3.6 RU
- Binding [RU] of OSCAR to ColI with 5 µg mAb [9]: -0.3 RU
- Binding [RU] of OSCAR to ColI with 5 µg mAb [10]: 1.4 RU

Binder: B2
- IC50 (IL-8), ColI-induced IL-8 release from moDC, Donor 1 [1]: 2 nM
- IC50 (IL-8), ColI-induced IL-8 release from moDC, Donor 4 [1]: < 0.01 nM
- IC50 (IL-8), ColI-induced IL-8 release from moDC, Donor 5 [1]: 0.23 nM
- IC50 (IL-8), ColI-induced IL-8 release from moDC, Donor 6 [1]: 0.06 nM
- EC50 [2]: 4.02 nM
- EC50 [3]: 2.18 nM
- binding of OSCAR-ECD to collagen I with 10 µg/mL mAb [4]: -1.4
- Kd [5]: 0.7 nM
- binding of OSCAR-ECD to collagen II with 10 µg/mL mAb [6]: 1.3
- Binding [RU] of OSCAR to ColI with 5 µg mAb [7]: 1.4 RU
- Binding [RU] of OSCAR to ColI with 5 µg mAb [8]: 5.1 RU
- Binding [RU] of OSCAR to ColI with 5 µg mAb [9]: -0.2 RU
- Binding [RU] of OSCAR to ColI with 5 µg mAb [10]: 2 RU

Binder: B3
- IC50 (IL-8), ColI-induced IL-8 release from moDC, Donor 1 [1]: 0.16 nM
- IC50 (IL-8), ColI-induced IL-8 release from moDC, Donor 2 [1]: 0.06 nM
- IC50 (IL-8), ColI-induced IL-8 release from moDC, Donor 3 [1]: 0.41 nM
- IC50 (IL-8), ColI-induced IL-8 release from moDC, Donor 4 [1]: 0.06 nM
- IC50 (IL-8), ColI-induced IL-8 release from moDC, Donor 5 [1]: 0.05 nM
- IC50 (IL-8), ColI-induced IL-8 release from moDC, Donor 6 [1]: 0.1 nM
- EC50 [2]: 1.79 nM
- EC50 [3]: 0.14 nM
- binding of OSCAR-ECD to collagen I with 10 µg/mL mAb [4]: 132
- Kd [5]: 9.1 nM
- binding of OSCAR-ECD to collagen II with 10 µg/mL mAb [6]: 246
- Binding [RU] of OSCAR to ColI with 5 µg mAb [7]: 82.5 RU
- Binding [RU] of OSCAR to ColI with 5 µg mAb [8]: 130 RU
- Binding [RU] of OSCAR to ColI with 5 µg mAb [9]: 58.9 RU
- Binding [RU] of OSCAR to ColI with 5 µg mAb [10]: 92.6 RU

Binder: B4
- Kd [11]: 255 nM
